Data on 1 substance can be found in paper PMC2475692.

Test [1] concerns the target YFP-EF-preIQ-IQ (CaV1.3 α1 C-terminal fragment, amino acids 1453–1623) (human) (UniProt Q01668). Put plainly: FRET or BRET. A general note: BRET reads energy transfer from a luciferase to a nearby fluorophore.
The target of test [2] is YFP-EF-preIQ-IQ-PCRD (CaV1.3 α1 C-terminal fragment, amino acids 1453–1664) (human). Put plainly: FRET or BRET.
Sequence of YFP-EF-preIQ-IQ-PCRD (CaV1.3 α1 C-terminal fragment, amino acids 1453–1664) (human) (Q01668 1453-1664): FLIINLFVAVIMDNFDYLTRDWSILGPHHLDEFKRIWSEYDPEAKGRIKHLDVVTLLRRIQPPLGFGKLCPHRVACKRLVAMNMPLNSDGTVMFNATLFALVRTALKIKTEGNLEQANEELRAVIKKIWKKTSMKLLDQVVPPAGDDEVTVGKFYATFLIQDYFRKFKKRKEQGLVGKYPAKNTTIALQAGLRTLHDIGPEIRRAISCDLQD

Sequence of YFP-EF-preIQ-IQ (CaV1.3 α1 C-terminal fragment, amino acids 1453–1623) (human) (Q01668 1468-1638): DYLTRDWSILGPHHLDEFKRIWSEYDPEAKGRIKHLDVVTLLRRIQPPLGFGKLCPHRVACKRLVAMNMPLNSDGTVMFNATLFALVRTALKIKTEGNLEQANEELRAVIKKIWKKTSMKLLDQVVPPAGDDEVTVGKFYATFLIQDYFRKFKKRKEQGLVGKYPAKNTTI

On to “CFP-labeled calmodulin (from UniProt P0DP23 1-149) (natural protein)”, for which the N FRET is 0.185 in test [1] and 0.235 in test [2].
